Results reported in paper PMC5716589, “The nucleoid as a scaffold for the assembly of bacterial signaling complexes” (PLoS Genetics, 2017).

Legend:
[1] = target: the molecule itself; assay: SEC-MALS; 100 μl of 2 mg/ml (45 μM) FrzCD injected on a BioRad EnRich650 column in 50 mM Tris, 50 mM NaCl, pH 8.0, 0.4 ml/min; Wyatt Dawn Heleos II, Debye model
[2] = target: T1, FrzCD-(His)6 (Myxococcus xanthus, UniProt P43500 1-417); assay: EMSA; 300 nM DNA; EMSA Fig 3: 10 mM Tris-HCl pH 8, 60 mM NaCl, 10% glycerol, 4 C, 40 min; EMSA S4 Fig: 50 mM Tris pH 7.4, 50 mM NaCl, 1 mM DTT, 10% glycerol, 25 C, 20 min; BLI: PBS pH 7.5, 0.001% Tween-20, 25 C (6His-FrzCDΔ1-130 used as reference subtraction); details: protein: recombinant; tags: C-terminal 6His; chain copies: 2; blunt
T1 sequence: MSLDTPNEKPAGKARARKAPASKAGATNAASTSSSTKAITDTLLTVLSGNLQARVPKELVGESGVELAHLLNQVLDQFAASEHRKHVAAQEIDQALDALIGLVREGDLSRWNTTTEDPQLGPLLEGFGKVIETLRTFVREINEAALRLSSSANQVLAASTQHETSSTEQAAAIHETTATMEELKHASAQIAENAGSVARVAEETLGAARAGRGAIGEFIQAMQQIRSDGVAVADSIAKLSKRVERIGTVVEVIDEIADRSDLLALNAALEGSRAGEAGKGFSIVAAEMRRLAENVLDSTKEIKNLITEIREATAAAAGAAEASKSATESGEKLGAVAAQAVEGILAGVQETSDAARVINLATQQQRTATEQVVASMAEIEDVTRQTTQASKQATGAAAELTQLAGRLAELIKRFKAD

B1: C-terminal-tagged FrzCD-(His)6 (receptor, Myxococcus xanthus, UniProt P43500 1-417, looked up)
chain: MSLDTPNEKPAGKARARKAPASKAGATNAASTSSSTKAITDTLLTVLSGNLQARVPKELVGESGVELAHLLNQVLDQFAASEHRKHVAAQEIDQALDALIGLVREGDLSRWNTTTEDPQLGPLLEGFGKVIETLRTFVREINEAALRLSSSANQVLAASTQHETSSTEQAAAIHETTATMEELKHASAQIAENAGSVARVAEETLGAARAGRGAIGEFIQAMQQIRSDGVAVADSIAKLSKRVERIGTVVEVIDEIADRSDLLALNAALEGSRAGEAGKGFSIVAAEMRRLAENVLDSTKEIKNLITEIREATAAAAGAAEASKSATESGEKLGAVAAQAVEGILAGVQETSDAARVINLATQQQRTATEQVVASMAEIEDVTRQTTQASKQATGAAAELTQLAGRLAELIKRFKAD
notes: FrzCD, cytoplasmic chemoreceptor (MCP) of the Frz chemosensory system of Myxococcus xanthus; the names of the deletion mutants (Δ131–417) imply 417 residues; also called FrzCD-H6; 6His-FrzCD (as called in the results for this experiment); source: E. coli BL21-AI, purified (HisTrap FF, MonoQ ion exchange)
With B1 as the binder, how does the “stoichiometry N” value [1] read?
Its value is 2.

B2: Oligo70 (dsDNA)
DNA 1: CTTGCAGTAGAGCTGACCATGATTACGCCATCAGCAGCTCCAGGTCGTACCTCCAGCTACCAATCCCCG
DNA 2: CGGGGATTGGTAGCTGGAGGTACGACCTGGAGCTGCTGATGGCGTAATCATGGTCAGCTCTACTGCAAG
Does B2 bind [2]?
Result: binds
